The results in this text go back to PMC3964601 (Biochemistry, 2012).

The chains are these.
B1: Pyrococcus furiosus RNase P protein RPP29 (natural protein)
chain: MWRNSEERENRTSGRSQGSYQEIIGRTWIFRGAHRGRVNKKNIVWHELIGLKVRVVNSTHPGYVGIEGYVIDETRNMLVIAGENKVWKVPKDVCIFEFETWDGTKIKISGEKLVGRPEMRLKKRWRK
B2: Pyrococcus furiosus RNase P protein RPP21 (natural protein)
chain: MAKYNEKKEKKRIAKERIDILFSLAERVFPYSPELAKRYVELALLVQQKAKVKIPRKWKRRYCKKCHAFLVPGINARVRLRQKRMPHIVVKCLECGHIMRYPYIKEIKKRRKEKMEY
B3: Pyrococcus furiosus RPP21/A14V (natural protein)
chain: B2 chain with A14V

Substitutions are numbered along the chain they refer to. Names and notes keep the numbering of the source. Read-outs that look alike come from different tables or passages of the source.

Assay in all cases: ITC
Test [1] has as its target B2.
Test [2] deals with B2. This is another data set of the same source.
Test [3] has as its target B2. This is another data set of the same source.
Test [4] addresses B2. The source holds these as a separate data set.
Test [5] deals with B2. This is another data set of the same source.
Test [6] concerns the target B2. The source holds these as a separate data set.
The target of test [7] is B2. This is another data set of the same source.
For test [8], the target named is B2. The source holds these as a separate data set.
Test [9] deals with B2. The source holds these as a separate data set.
Test [10] deals with B2. The source holds these as a separate data set.
The target in test [11] is B2. The source holds these as a separate data set.
The target of test [12] is B1.
Test [13] concerns the target B1. This is another data set of the same source.
The target in test [14] is B1. This is another data set of the same source.
Test [15] addresses B1. The source holds these as a separate data set.
Test [16] addresses B1. The source holds these as a separate data set.
Test [17] deals with B1. This is another data set of the same source.
For test [18], the target named is B1. The source holds these as a separate data set.
In test [19] the target is B1. The source holds these as a separate data set.
In test [20] the target is B1. The source holds these as a separate data set.

As to B1, the dH was -23.5 kcal/mol in test [1]; -37.6 kcal/mol in [2]; -10.2 kcal/mol in test [3]; -15.8 kcal/mol in test [4]; -34.3 kcal/mol in [5]; -43 kcal/mol in test [6]. Further, the dH in test [7] was -5.19 kcal/mol; in test [8], -32 kcal/mol; in [9] it was 17.1 kcal/mol; in test [10] it was 5.95 kcal/mol; in test [11] it was 11.6 kcal/mol. For the same molecule, the “stoichiometry N” value is 1 RPP29 per RPP21 in test [1]; 0.998 RPP29 per RPP21 in [3]; 1.03 RPP29 per RPP21 in test [4]; 0.986 RPP29 per RPP21 in [7]; 0.97 RPP29 per RPP21 in [8]; 0.956 RPP29 per RPP21 in test [9]. For the same molecule, the “stoichiometry N” value in test [10] was 0.9 RPP29 per RPP21; in [11], 1.01 RPP29 per RPP21.
For the molecule B2, the Ka in test [12] is 1.07e+07 M⁻¹; in test [13], 2.01e+07 M⁻¹; in test [14], 1.71e+07 M⁻¹; in test [15], 3.32e+07 M⁻¹; in [16] it was 2.04e+06 M⁻¹; in test [17], 9.17e+06 M⁻¹. The values for the Ka in [18] and in [19] were 9.55e+06 M⁻¹ and 1.09e+07 M⁻¹, respectively.
Consider B3, for which the binding result in [20] is given as “binds”.

In general, stoichiometry N refers to the number of molecules, sites or subunits per partner or assembly.
